In assay [1] the target is T1, human MSLN-R2-his protein (human, UniProt Q13421 391-486).
T1 construct: it is put last here; also called human MSLN-R2 protein; hMSLN-R2-his; not shown: His tag
In words: ELISA on coated antigen, antibody 2 nM. Background: ELISA stands for enzyme-linked immunosorbent assay.

In assay [2] the target is T2, human MSLN-R3-his protein (human, UniProt Q13421 487-598).
T2 construct: it is put last here; also called human MSLN-R3 protein; hMSLN-R3-his; not shown: His tag
Briefly: ELISA on coated antigen, antibody 2 nM.

The target in assay [3] is T1, human MSLN-R2-his protein. In words: ELISA on coated antigen, antibody 20 nM.
Experimental: (§1) The plate was sealed with a plastic film and incubated at 4° C. overnight. The next day, the plate was washed twice with PBST, and a blocking buffer [PBS+2% (w/w) BSA] was added for blocking at room temperature for 2 h. The blocking buffer was discarded, and a chimeric antibody or negative control antibody serially diluted from 100 nM was added at 50 μL/well. After incubation at 37° C. for 2 h, the plate was washed 3 times with PBST. […] After incubation at 37° C. for 2 h, the plate was washed 5 times with PBST. A TMB substrate was added at 50 μL/well for incubation at room temperature for 5-10 min, and then a stop solution (1.0 N HCl) was added at 50 μL/well.
For assay [4], the target named is T2, human MSLN-R3-his protein. Briefly: ELISA on coated antigen, antibody 20 nM.
Experimental: as §1
For assay [5], the target named is T1, human MSLN-R2-his protein. Briefly: ELISA on coated antigen, antibody 0.2 nM.
Experimental: as §1
Assay [6] concerns the target T1, human MSLN-R2-his protein. In words: ELISA on coated antigen, antibody 200 nM.
Experimental: as §1
Assay [7] addresses T2, human MSLN-R3-his protein. In words: ELISA on coated antigen, antibody 0.2 nM.
Experimental: as §1
The target of assay [8] is T2, human MSLN-R3-his protein. Briefly: ELISA on coated antigen, antibody 200 nM.
Assay [9] has as its target T1, human MSLN-R2-his protein. Briefly: ELISA on coated antigen, antibody 0.02 nM.
Experimental: as §1
In assay [10] the target is T2, human MSLN-R3-his protein. In words: ELISA on coated antigen, antibody 0.02 nM.
Experimental: as §1
In assay [11] the target is T1, human MSLN-R2-his protein. In words: ELISA on coated antigen, antibody 0.002 nM.
Experimental: as §1
Assay [12] addresses T2, human MSLN-R3-his protein. In words: ELISA on coated antigen, antibody 0.002 nM.
Assay [13] has as its target T1, human MSLN-R2-his protein. Briefly: ELISA on coated antigen, antibody 0.0002 nM.
Experimental: as §1
Assay [14] addresses T2, human MSLN-R3-his protein. Briefly: ELISA on coated antigen, antibody 0.0002 nM.
Experimental: as §1
The target of assay [15] is T1, human MSLN-R2-his protein. Briefly: ELISA on coated antigen, no antibody (blank, column 'none').
Experimental: as §1
The target in assay [16] is T2, human MSLN-R3-his protein. Described as above.
Experimental: as §1
Assay [17] addresses T3, human MSLN protein endogenously expressed on OVCAR3 tumor cells (human, UniProt Q13421 296-598).
T3 construct: whole, on cells; Endogenous target on OVCAR3 cells; kept apart from the recombinant full-length construct; also called mesothelin
In words: FACS on OVCAR3 cells.
Experimental: (§2) The desired cells were expanded to the logarithmic growth phase in a T-75 cell culture flask. […] After the cells from the previous step were subjected to cell counting, the cell pellet was resuspended to 2×10⁶ cells/mL in a blocking buffer of [PBS+2% (w/w) BSA] and added into a 96-well FACS reaction plate at 50 μL/well. A chimeric antibody (a sample to be tested) was added at 50 μL/well, and the plate was incubated on ice for 2 h. […] After the plate was centrifuged and washed 5 times with a PBST buffer, assay and analysis were performed by FACS (FACS CantoII, purchased from BD). Data analysis was performed by software (Flowjo) to obtain the mean fluorescence intensity (MFI) of the cells.

In assay [18] the target is T4, human MSLN full-length protein (NCBI: AAH09272.1) expressed on HEK293T-hMSLN-B8 cells (human, UniProt Q13421 296-598).
T4 construct: Whole encoded precursor
In words: FACS on HEK293T-hMSLN-B8 cells.
Experimental: as §2

Assay [19] deals with T5, human MSLN-R3 protein (Met487-Ser606 of NCBI AAH09272.1) expressed on HEK293T-hMSLN-R3 cells (human, UniProt Q13421 487-606).
T5 construct: also called Region3
Briefly: FACS on HEK293T-hMSLN-R3 cells.
Experimental: as §2

T5 sequence (Q13421 495-614): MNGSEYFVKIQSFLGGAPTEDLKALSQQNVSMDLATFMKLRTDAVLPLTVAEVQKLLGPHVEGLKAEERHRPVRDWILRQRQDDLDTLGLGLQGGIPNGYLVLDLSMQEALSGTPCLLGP
T3 sequence (Q13421 other isoform, or with tags, fused parts or gaps): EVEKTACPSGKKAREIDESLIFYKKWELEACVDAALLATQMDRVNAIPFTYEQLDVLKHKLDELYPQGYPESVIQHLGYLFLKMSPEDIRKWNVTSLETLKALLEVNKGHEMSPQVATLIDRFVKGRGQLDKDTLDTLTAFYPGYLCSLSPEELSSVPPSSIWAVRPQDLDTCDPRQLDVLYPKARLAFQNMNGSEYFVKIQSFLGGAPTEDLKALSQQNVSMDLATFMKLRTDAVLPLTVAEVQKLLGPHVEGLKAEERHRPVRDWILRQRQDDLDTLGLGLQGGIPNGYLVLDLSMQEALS
T4 sequence (Q13421 other isoform, or with tags, fused parts or gaps limits assumed): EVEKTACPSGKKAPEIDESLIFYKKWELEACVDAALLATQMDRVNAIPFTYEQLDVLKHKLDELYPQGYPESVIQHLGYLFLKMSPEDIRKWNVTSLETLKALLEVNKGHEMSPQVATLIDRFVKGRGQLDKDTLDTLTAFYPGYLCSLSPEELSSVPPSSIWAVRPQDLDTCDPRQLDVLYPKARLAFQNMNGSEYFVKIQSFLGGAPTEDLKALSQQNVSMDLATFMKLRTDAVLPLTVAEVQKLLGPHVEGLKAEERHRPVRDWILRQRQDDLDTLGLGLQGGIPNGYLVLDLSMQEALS
T2 sequence (Q13421 495-606): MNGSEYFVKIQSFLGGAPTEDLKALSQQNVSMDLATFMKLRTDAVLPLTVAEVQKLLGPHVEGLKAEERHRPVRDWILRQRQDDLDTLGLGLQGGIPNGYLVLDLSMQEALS
T1 sequence (Q13421 other isoform, or with tags, fused parts or gaps): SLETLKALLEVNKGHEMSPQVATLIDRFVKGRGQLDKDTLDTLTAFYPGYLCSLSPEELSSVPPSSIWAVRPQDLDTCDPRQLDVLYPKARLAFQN

B1: S009-F7.67.12 (antibody, human IgG1, kappa, V domains shown)
VH: QVQLQQPGTELVKPGASVRLSCRASGYSFSSYWMHWVKQRPGQGLEWLGNINPTTGDINYNEKFRNRATLAVDKSSTTAYLQLTSLTSEDSAVYFCVRHDGFLWGQGTTLTVSS
VL: DIQMTQSPASLSASVGETVTITCRASENIYSYLAWYQQKQGKSPQLLVYYAKTLAEGVSSRFSGSGSGTQFSLKINSLQPEDFGTYYCQHQFGTPRTFGGGTKLEIRR
notes: Human-murine chimeric antibody, human IgG1 heavy and kappa light constant regions
B1: the OD450 in assay [1] is 0.06 OD; in assay [2], 2.45 OD; in [3], 0.07 OD; in assay [4], 2.49 OD; in assay [5] it was 0.06 OD; in assay [6], 0.1 OD. Besides, the OD450 in assay [7] is 1.93 OD; in assay [8], 2.75 OD; in [9], 0.05 OD; in assay [10], 0.69 OD; in [11] it was 0.05 OD; in assay [12], 0.24 OD. Besides, the OD450 in assay [13] was found to be 0.05 OD; in assay [14], 0.11 OD; in [15] it was 0.06 OD; in [16], 0.07 OD.

B2: S009-F7.66.12 (antibody, human IgG1, kappa, V domains shown)
VH: QIPLQQSGPELVKPGASVRISCKASDYAFSSSWMNWVKQRPEKGLEWIGRIFVESGNTHYNDKFNGKATLTADKSSRTAYIQLSSLTSEDSAVYFCTRENIFYHGHSSWFAYWGQGTLVTVSA
VL: DIVLTQSPASLVVSLGQRATISCRAGESVDDFGISYVHWYQQKPGQPPKLLIYRAANLESGIPARFSGSGSRTDFTLTINPVETDDVAIYYCQQNNKDPFTFGSGTKLEIKR
notes: as for B1
Turning to B2, the OD450 was 0.06 OD in assay [1]; 2.25 OD in assay [2]; 0.09 OD in assay [3]; 2.37 OD in assay [4]; 0.05 OD in [5]; 0.28 OD in assay [6]. Besides, the OD450 amounted to 1.95 OD in assay [7]; 2.6 OD in [8]; 0.05 OD in [9]; 0.04 OD in [10]; 0.05 OD in assay [11]; 0.23 OD in [12]. In addition, the OD450 in assay [13] is 0.27 OD; in assay [14] it was 0.14 OD; in assay [15], 0.07 OD; in assay [16], 0.06 OD.

B3: S009-F2.38.12 (antibody, human IgG1, kappa, V domains shown)
VH: QVQLQQPGTELVKPGASVKLSCKASGYTFTSYWMHWVKQRPGQGLEWIGNINPSNGGTNYNEKIKNKATLTVDKSSSTAYMQLSSLTSEDSAVYYCARWNYYGNYPFDYWGQGTTLTVSS
VL: DIVMTQSQKFMSTTVGDRVSITCKASQNVGTAVAWYQQKPGQSPKLLIYSASNRYTGVPDRFTGSGSGTDFTLTISNMQSEDLADYFCQQYSSYPLTFGAGTKLELKR
notes: human-murine chimeric antibody, human IgG1/kappa constant regions
Consider B3, for which the entries for the “Maximum mean fluorescence intensity” value in assay [17], in assay [18] and in assay [19] were 4510, 97700 and 136, respectively. For the same molecule, the EC50 in assay [18] is around 0.82 nM. In assay [19], the binding result is “no binding”.

B4: Tab106 (YP218, hIgG1) (antibody, V domains shown)
VH: QQQLEESGGGLVKPEGSLTLTCKASGFDLGFYFYACWVRQAPGKGLEWIACIYTAGSGSTYYASWAKGRFTISKASSTTVTLQMTSLAAADTATYFCARSTANTRSTYYLNLWGPGTLVTVSS
VL: DVVMTQTPASVSEPVGGTVTIKCQASQRISSYLSWYQQKPGQRPKLLIFGASTLASGVPSRFKGSGSGTEYTLTISDLECADAATYYCQSYAYFDSNNWHAFGGGTEVVVRT
notes: Control antibody; YP218 VH and VL recombined into human IgG1 CH and CL expression vectors; also called YP218 human IgG1 antibody
As to B4, the OD450 in assay [1] turned out to be 1.42 OD; in assay [2], 2.33 OD; in assay [3], 2.42 OD; in assay [4] it was 2.26 OD; in [5], 0.47 OD; in assay [6], 2.54 OD. The OD450 in assay [7] is 1.9 OD; in assay [8] it was 2.12 OD; in [9], 0.17 OD; in [10], 0.97 OD; in assay [11] it was 0.11 OD; in assay [12], 0.65 OD. The OD450 in [13] stood at 0.12 OD; in assay [14], 0.35 OD; in [15], 0.07 OD; in assay [16], 0.06 OD.

B5: S009-F7.65.13 (antibody, human IgG1, kappa, V domains shown)
VH: EVQLQQSGPELVKPGTSVKILCKASGDTFTAYNMDWVKQRHGQSLEWIGDINPNTDSTIYNQKFEGKAILTVDKSSSTAYMELRSLTSEDTAVYYCARRKLGRGYFDYWGQGTTLTVSS
VL: QIVLTQSPAIMSASPGEKVTMTCSVNLSVRYIYWYQQKPGSSPRLLIHDTSNLASGVPVRFSGSGSGTSYSLTISRMEAEDAATYYCQQWSSFPYTFGGGTKLEIKR
notes: as for B1
With B5, the OD450 in assay [1] turned out to be 0.05 OD; in assay [2], 2.39 OD; in [3] it was 0.05 OD; in [4], 2.34 OD; in assay [5], 0.05 OD; in assay [6], 0.1 OD. The OD450 in assay [7] turned out to be 1.3 OD; in assay [8] it was 2.63 OD; in assay [9], 0.05 OD; in assay [10], 0.35 OD; in [11] it was 0.05 OD; in [12], 0.14 OD. Further, the OD450 was 0.05 OD in assay [13], 0.07 OD in [14], 0.07 OD in assay [15] and 0.07 OD in assay [16].

B6: S009-F2.58.8 (antibody, human IgG1, kappa, V domains shown)
VH: QVQLLQSGAELAKPGASVKLSCKASGYTFTSYWVHWVKQRPGQGLEWIGYINPNSGYTKYNQKFKDKATLTADKSSSTAYMQLSSLTYEDSAVYYCADHYYGSSRDYFDYWGQGTTLTVSS
VL: QIVLTQSPAIMSASPGEKVTMTCSASSSVSYMYWYQQRPGSSPRLLIYDTSNLASGVPVRFSGSGSGTSYSLTISRMEAEDAATYYCQQWNSYPYTFGGGTKLEIKR
notes: as for B3
Take B6: in assay [17], the EC50 is 1.82 nM and the “Maximum mean fluorescence intensity” value is 13100. Besides, in [18], the EC50 was 3.5 nM and the “Maximum mean fluorescence intensity” value was determined as 141000. Besides, in assay [19], the “Maximum mean fluorescence intensity” value was determined as 366 and the binding result is “no binding”.

As usually defined, the EC50 is the concentration at which the effect is half-maximal. High values mean a less potent agent, low ones a more potent agent.

The values above are taken from patent US20250250357A1 (NANJING ZAIMING PHARMACEUTICAL, published 2025).
